Biological target: T1, Aβ aggregates in human Alzheimer's disease brain (Homo sapiens (endogenous, Alzheimer's …, UniProt P05067))
T1 construct: Aβ peptide of the amyloid precursor protein, aggregated in patient brain; also called Alzheimer's brain lysates; Aβ plaques; source: endogenous, human Alzheimer's disease brain (hippocampus homogenates; paraffin-embedded frontal cortex sections)
Assay: immunostaining of cells or tissue; immunohistochemistry of paraffin-embedded frontal cortex of Alzheimer's disease patients with moderate cerebral amyloid angiopathy; Digoxigenin-tagged antibody applied 1 h; HRP polymer, DAB
Details: one partner purified

B1: 97A34 tagged with Digoxigenin (antibody, V domains shown)
VH: EVQLVESGGGLVQPGGSLRLSCAASGYNIKATYIHWVRQAPGKGLEWVARIYPASGATRYADSVKGRFTISADTSKNTAYLQMNSLRAEDTAVYYCARDGYDGSYFVGYDYNDFYDYWGQGTLVTVSS
VL: DIQMTQSPSSLSASVGDRVTITCRASQNVAYAVTWYQQKPGKAPKLLIYSASFLYSGVPSRFSGSRSGTDFTLTISSLQPEDFATYYCQQHSTYPPTFGQGTKVEIK
notes: heavy chain constant region; light chain constant region; Detected with a Human-on-Human HRP-Polymer kit through mouse anti-Digoxigenin; I surmise the human IgG1 kappa form
- binding result: binds

Reference: PMC12554751 (Frontiers in Immunology, 2025)
